Assay results published in US20140220031A1 (Biogen, published 2014).

T1: CD154 (human, UniProt P29965 113-261, limits assumed)
T1 construct: also called CD40 ligand; CD40L
T1 sequence (looked up): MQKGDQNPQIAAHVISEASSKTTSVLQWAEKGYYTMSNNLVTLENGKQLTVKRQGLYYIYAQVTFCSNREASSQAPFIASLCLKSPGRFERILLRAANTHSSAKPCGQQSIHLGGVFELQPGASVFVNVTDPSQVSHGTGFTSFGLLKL

B1: 5c8 Fab Mutant #14 (light chain S26D/Q27E) (Fab, V domains shown)
VH: QVQLVQSGAEVVKPGASVKLSCKASGYIFTSYYMYWVKQAPGQGLEWIGEINPSNGDTNFNEKFKSKATLTVDKSASTAYMELSSLRSEDTAVYYCTRSDGRNDMDSWGQGTLVTVSS
VL: DIVLTQSPATLSVSPGERATISCRADERVSSSTYSYMHWYQQKPGQPPKLLIKYASNLESGVPARFSGSGSGTDFTLTISSVEPEDFATYYCQHSWEIPPTFGGGTKLEIK
notes: Fab fragment; also called double mutant
B2: 5c8 Fab Mutant #1 (heavy chain T30H) (Fab, V domains shown)
VH: QVQLVQSGAEVVKPGASVKLSCKASGYIFHSYYMYWVKQAPGQGLEWIGEINPSNGDTNFNEKFKSKATLTVDKSASTAYMELSSLRSEDTAVYYCTRSDGRNDMDSWGQGTLVTVSS
VL: DIVLTQSPATLSVSPGERATISCRASQRVSSSTYSYMHWYQQKPGQPPKLLIKYASNLESGVPARFSGSGSGTDFTLTISSVEPEDFATYYCQHSWEIPPTFGGGTKLEIK
notes: Fab fragment
B3: 5c8 Fab Mutant #16 (heavy chain T30H; light chain S26D/Q27E) (Fab, V domains shown)
VH: QVQLVQSGAEVVKPGASVKLSCKASGYIFHSYYMYWVKQAPGQGLEWIGEINPSNGDTNFNEKFKSKATLTVDKSASTAYMELSSLRSEDTAVYYCTRSDGRNDMDSWGQGTLVTVSS
VL: DIVLTQSPATLSVSPGERATISCRADERVSSSTYSYMHWYQQKPGQPPKLLIKYASNLESGVPARFSGSGSGTDFTLTISSVEPEDFATYYCQHSWEIPPTFGGGTKLEIK
notes: Fab fragment
B4: 5c8 Fab Mutant #12 (heavy chain N59D) (Fab, V domains shown)
VH: QVQLVQSGAEVVKPGASVKLSCKASGYIFTSYYMYWVKQAPGQGLEWIGEINPSNGDTDFNEKFKSKATLTVDKSASTAYMELSSLRSEDTAVYYCTRSDGRNDMDSWGQGTLVTVSS
VL: DIVLTQSPATLSVSPGERATISCRASQRVSSSTYSYMHWYQQKPGQPPKLLIKYASNLESGVPARFSGSGSGTDFTLTISSVEPEDFATYYCQHSWEIPPTFGGGTKLEIK
notes: also called Asn59Asp
B5: 5c8 Fab Mutant #23 (heavy chain Y33W; light chain S26D/Q27E) (Fab, V domains shown)
VH: QVQLVQSGAEVVKPGASVKLSCKASGYIFTSYWMYWVKQAPGQGLEWIGEINPSNGDTNFNEKFKSKATLTVDKSASTAYMELSSLRSEDTAVYYCTRSDGRNDMDSWGQGTLVTVSS
VL: DIVLTQSPATLSVSPGERATISCRADERVSSSTYSYMHWYQQKPGQPPKLLIKYASNLESGVPARFSGSGSGTDFTLTISSVEPEDFATYYCQHSWEIPPTFGGGTKLEIK
notes: Fab fragment
B6: 5c8 Fab Mutant #7 (light chain Q27E) (Fab, V domains shown)
VH: QVQLVQSGAEVVKPGASVKLSCKASGYIFTSYYMYWVKQAPGQGLEWIGEINPSNGDTNFNEKFKSKATLTVDKSASTAYMELSSLRSEDTAVYYCTRSDGRNDMDSWGQGTLVTVSS
VL: DIVLTQSPATLSVSPGERATISCRASERVSSSTYSYMHWYQQKPGQPPKLLIKYASNLESGVPARFSGSGSGTDFTLTISSVEPEDFATYYCQHSWEIPPTFGGGTKLEIK
notes: Fab fragment
B7: 5c8 Fab Mutant #2 (heavy chain Y33W) (Fab, V domains shown)
VH: QVQLVQSGAEVVKPGASVKLSCKASGYIFTSYWMYWVKQAPGQGLEWIGEINPSNGDTNFNEKFKSKATLTVDKSASTAYMELSSLRSEDTAVYYCTRSDGRNDMDSWGQGTLVTVSS
VL: DIVLTQSPATLSVSPGERATISCRASQRVSSSTYSYMHWYQQKPGQPPKLLIKYASNLESGVPARFSGSGSGTDFTLTISSVEPEDFATYYCQHSWEIPPTFGGGTKLEIK
notes: Fab fragment
B8: 5c8 Fab Mutant #11 (heavy chain Y33F) (Fab, V domains shown)
VH: QVQLVQSGAEVVKPGASVKLSCKASGYIFTSYFMYWVKQAPGQGLEWIGEINPSNGDTNFNEKFKSKATLTVDKSASTAYMELSSLRSEDTAVYYCTRSDGRNDMDSWGQGTLVTVSS
VL: DIVLTQSPATLSVSPGERATISCRASQRVSSSTYSYMHWYQQKPGQPPKLLIKYASNLESGVPARFSGSGSGTDFTLTISSVEPEDFATYYCQHSWEIPPTFGGGTKLEIK
B9: 5c8 Fab Mutant #9 (light chain T33D) (Fab, V domains shown)
VH: QVQLVQSGAEVVKPGASVKLSCKASGYIFTSYYMYWVKQAPGQGLEWIGEINPSNGDTNFNEKFKSKATLTVDKSASTAYMELSSLRSEDTAVYYCTRSDGRNDMDSWGQGTLVTVSS
VL: DIVLTQSPATLSVSPGERATISCRASQRVSSSDYSYMHWYQQKPGQPPKLLIKYASNLESGVPARFSGSGSGTDFTLTISSVEPEDFATYYCQHSWEIPPTFGGGTKLEIK
B10: 5c8 Fab Mutant #8 (light chain S31V) (Fab, V domains shown)
VH: QVQLVQSGAEVVKPGASVKLSCKASGYIFTSYYMYWVKQAPGQGLEWIGEINPSNGDTNFNEKFKSKATLTVDKSASTAYMELSSLRSEDTAVYYCTRSDGRNDMDSWGQGTLVTVSS
VL: DIVLTQSPATLSVSPGERATISCRASQRVSVSTYSYMHWYQQKPGQPPKLLIKYASNLESGVPARFSGSGSGTDFTLTISSVEPEDFATYYCQHSWEIPPTFGGGTKLEIK
B11: 5c8 Fab Mutant #24 (heavy chain T30H/Y33W; light chain S26D/Q27E) (Fab, V domains shown)
VH: QVQLVQSGAEVVKPGASVKLSCKASGYIFHSYWMYWVKQAPGQGLEWIGEINPSNGDTNFNEKFKSKATLTVDKSASTAYMELSSLRSEDTAVYYCTRSDGRNDMDSWGQGTLVTVSS
VL: DIVLTQSPATLSVSPGERATISCRADERVSSSTYSYMHWYQQKPGQPPKLLIKYASNLESGVPARFSGSGSGTDFTLTISSVEPEDFATYYCQHSWEIPPTFGGGTKLEIK
notes: Fab fragment
B12: 5c8 Fab Mutant #13 (heavy chain N59L) (Fab, V domains shown)
VH: QVQLVQSGAEVVKPGASVKLSCKASGYIFTSYYMYWVKQAPGQGLEWIGEINPSNGDTLFNEKFKSKATLTVDKSASTAYMELSSLRSEDTAVYYCTRSDGRNDMDSWGQGTLVTVSS
VL: DIVLTQSPATLSVSPGERATISCRASQRVSSSTYSYMHWYQQKPGQPPKLLIKYASNLESGVPARFSGSGSGTDFTLTISSVEPEDFATYYCQHSWEIPPTFGGGTKLEIK
notes: also called Asn59Leu
B13: 5c8 Fab Mutant #17 (heavy chain Y33W; light chain S26D/Q27E/T33W) (Fab, V domains shown)
VH: QVQLVQSGAEVVKPGASVKLSCKASGYIFTSYWMYWVKQAPGQGLEWIGEINPSNGDTNFNEKFKSKATLTVDKSASTAYMELSSLRSEDTAVYYCTRSDGRNDMDSWGQGTLVTVSS
VL: DIVLTQSPATLSVSPGERATISCRADERVSSSWYSYMHWYQQKPGQPPKLLIKYASNLESGVPARFSGSGSGTDFTLTISSVEPEDFATYYCQHSWEIPPTFGGGTKLEIK
notes: Fab fragment
B14: 5c8 Fab Mutant #6 (light chain S26D) (Fab, V domains shown)
VH: QVQLVQSGAEVVKPGASVKLSCKASGYIFTSYYMYWVKQAPGQGLEWIGEINPSNGDTNFNEKFKSKATLTVDKSASTAYMELSSLRSEDTAVYYCTRSDGRNDMDSWGQGTLVTVSS
VL: DIVLTQSPATLSVSPGERATISCRADQRVSSSTYSYMHWYQQKPGQPPKLLIKYASNLESGVPARFSGSGSGTDFTLTISSVEPEDFATYYCQHSWEIPPTFGGGTKLEIK
notes: Fab fragment
B15: 5c8 Fab Mutant #25 (heavy chain T30H/Y33W; light chain S26D/Q27E/T33W) (Fab, V domains shown)
VH: QVQLVQSGAEVVKPGASVKLSCKASGYIFHSYWMYWVKQAPGQGLEWIGEINPSNGDTNFNEKFKSKATLTVDKSASTAYMELSSLRSEDTAVYYCTRSDGRNDMDSWGQGTLVTVSS
VL: DIVLTQSPATLSVSPGERATISCRADERVSSSWYSYMHWYQQKPGQPPKLLIKYASNLESGVPARFSGSGSGTDFTLTISSVEPEDFATYYCQHSWEIPPTFGGGTKLEIK
notes: Fab fragment; also called combination 5 point mutation (assigned)
B16: 5c8 Fab Mutant #18 (heavy chain T30H; light chain S26D/Q27E/T33W) (Fab, V domains shown)
VH: QVQLVQSGAEVVKPGASVKLSCKASGYIFHSYYMYWVKQAPGQGLEWIGEINPSNGDTNFNEKFKSKATLTVDKSASTAYMELSSLRSEDTAVYYCTRSDGRNDMDSWGQGTLVTVSS
VL: DIVLTQSPATLSVSPGERATISCRADERVSSSWYSYMHWYQQKPGQPPKLLIKYASNLESGVPARFSGSGSGTDFTLTISSVEPEDFATYYCQHSWEIPPTFGGGTKLEIK
notes: Fab fragment
B17: 5c8 Fab Mutant #10 (light chain Y54E) (Fab, V domains shown)
VH: QVQLVQSGAEVVKPGASVKLSCKASGYIFTSYYMYWVKQAPGQGLEWIGEINPSNGDTNFNEKFKSKATLTVDKSASTAYMELSSLRSEDTAVYYCTRSDGRNDMDSWGQGTLVTVSS
VL: DIVLTQSPATLSVSPGERATISCRASQRVSSSTYSYMHWYQQKPGQPPKLLIKEASNLESGVPARFSGSGSGTDFTLTISSVEPEDFATYYCQHSWEIPPTFGGGTKLEIK
B18: 5c8 Fab Mutant #4 (heavy chain S54N) (Fab, V domains shown)
VH: QVQLVQSGAEVVKPGASVKLSCKASGYIFTSYYMYWVKQAPGQGLEWIGEINPNNGDTNFNEKFKSKATLTVDKSASTAYMELSSLRSEDTAVYYCTRSDGRNDMDSWGQGTLVTVSS
VL: DIVLTQSPATLSVSPGERATISCRASQRVSSSTYSYMHWYQQKPGQPPKLLIKYASNLESGVPARFSGSGSGTDFTLTISSVEPEDFATYYCQHSWEIPPTFGGGTKLEIK
notes: Fab fragment
B19: 5c8 Fab Mutant #5 (light chain T33W) (Fab, V domains shown)
VH: QVQLVQSGAEVVKPGASVKLSCKASGYIFTSYYMYWVKQAPGQGLEWIGEINPSNGDTNFNEKFKSKATLTVDKSASTAYMELSSLRSEDTAVYYCTRSDGRNDMDSWGQGTLVTVSS
VL: DIVLTQSPATLSVSPGERATISCRASQRVSSSWYSYMHWYQQKPGQPPKLLIKYASNLESGVPARFSGSGSGTDFTLTISSVEPEDFATYYCQHSWEIPPTFGGGTKLEIK
notes: Fab fragment
B20: 5c8 Fab Mutant #15 (light chain S26D/Q27E/T33W) (Fab, V domains shown)
VH: QVQLVQSGAEVVKPGASVKLSCKASGYIFTSYYMYWVKQAPGQGLEWIGEINPSNGDTNFNEKFKSKATLTVDKSASTAYMELSSLRSEDTAVYYCTRSDGRNDMDSWGQGTLVTVSS
VL: DIVLTQSPATLSVSPGERATISCRADERVSSSWYSYMHWYQQKPGQPPKLLIKYASNLESGVPARFSGSGSGTDFTLTISSVEPEDFATYYCQHSWEIPPTFGGGTKLEIK
notes: Fab fragment

target: T1, CD154; assay: assay not named in the sentence (mutants characterized by competitive ELISA)

| Binder | fold higher affinity compared to the wildtype 5c8 Fab [fold over wildtype] |
| --- | --- |
| B1 | 9 |

target: T1, CD154; assay: ELISA-based competitive binding assay; unlabeled Fab against biotin-labeled 5c8 Fab competitor

| Binder | ELISA fold-improvement over wildtype [fold over wildtype] |
| --- | --- |
| B2 | 2.3 |
| B3 | 5.8 |
| B4 | 0.13 |
| B1 | 5.6 |
| B5 | 5.2 |
| B6 | 6.3 |
| B7 | 7 |
| B8 | 0.05 |
| B9 | 0.22 |
| B10 | 0.02 |
| B11 | 8 |
| B12 | 0.01 |
| B13 | 5.9 |
| B14 | 2.6 |
| B15 | 5.6 |
| B16 | 5.4 |
| B17 | 0.06 |
| B18 | 2 |
| B19 | 5 |
| B20 | 3.8 |

target: T1, CD154; assay: assay not given

| Binder | fold higher affinity compared to the wild type [fold over wild type] |
| --- | --- |
| B15 | 25 |
